Measured values from paper PMC8303963, “Action of Multiple Rice β-Glucosidases on Abscisic Acid Glucose Ester” (International Journal of Molecular Sciences, 2021).

Tested on: T1, CC1=CC(=O)CC(C)(C)[C@@]1(O)/C=C/C(C)=C\C(=O)O[C@@H]1O[C@H](CO)[C@@H](O)[C@H](O)[C@H]1O
T1 construct: recombinant from E. coli, IMAC purified; N-terminal thioredoxin and His6 tags cut off with enterokinase
Assay: glucose release by peroxidase/glucose oxidase assay, Michaelis-Menten fit
Type: biochemical, Oryza sativa
Settings: 50 mM sodium acetate pH 5, 30 °C
From the text: glucose release by peroxidase/glucose oxidase assay, Michaelis-Menten fit on Os4BGlu13

Os4BGlu13 (Oryza sativa Japonica Group), sequence (chain, as listed by the source): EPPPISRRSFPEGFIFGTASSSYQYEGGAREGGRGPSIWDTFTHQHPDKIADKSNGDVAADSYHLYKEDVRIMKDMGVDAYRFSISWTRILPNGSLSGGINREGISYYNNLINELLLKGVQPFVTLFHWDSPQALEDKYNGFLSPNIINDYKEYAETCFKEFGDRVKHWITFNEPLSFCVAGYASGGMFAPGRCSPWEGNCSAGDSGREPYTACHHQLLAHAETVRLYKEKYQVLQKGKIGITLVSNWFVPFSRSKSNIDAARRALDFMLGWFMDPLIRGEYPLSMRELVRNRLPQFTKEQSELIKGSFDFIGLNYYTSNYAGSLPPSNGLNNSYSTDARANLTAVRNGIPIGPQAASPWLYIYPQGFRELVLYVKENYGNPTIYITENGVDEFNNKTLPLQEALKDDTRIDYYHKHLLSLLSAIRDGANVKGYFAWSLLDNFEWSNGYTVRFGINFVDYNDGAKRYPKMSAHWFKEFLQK

Work on Os4BGlu13 (Oryza sativa Japonica Group) yielded a Km of 1660 ± 90 µM, a kcat of 20.6 ± 0.5 s⁻¹ and a kcat/Km of 12400 M⁻¹ s⁻¹.
